Experimental data published in US20110098449A1.

Molecular target: Human recombinant hepatocyte growth factor activator (HGFA) (human) (UniProt Q04756)
Experiment: cell-based or functional assay

UniProt Q04756, sequence (Q04756 373-655 limits assumed): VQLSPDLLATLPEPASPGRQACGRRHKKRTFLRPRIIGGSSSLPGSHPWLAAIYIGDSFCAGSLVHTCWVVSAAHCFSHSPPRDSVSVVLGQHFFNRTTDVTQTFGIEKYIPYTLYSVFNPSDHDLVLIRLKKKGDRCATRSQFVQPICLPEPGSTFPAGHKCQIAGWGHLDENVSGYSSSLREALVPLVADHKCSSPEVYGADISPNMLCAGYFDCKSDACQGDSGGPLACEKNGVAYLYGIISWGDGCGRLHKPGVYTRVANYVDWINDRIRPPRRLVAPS

Substance: Soluble HAI-1B (hepatocyte growth factor activator inhibitor-1B) (from UniProt O43278 36-465)
- inhibition of HGFA-mediated 125I-proHGF conversion (SDS-PAGE): 1 µM
